Experimental data as given in the supplement of paper PMC10567573.
± gives the standard deviation.

Test: protein stability index of a GFP-peptide fusion (GPS, HEK-293T) (PSI 1-6); higher = more stable
[1] = treatment: DMSO, c terminus: a fixed tail appended
[2] = treatment: MLN4924 1 uM, 8 h, c terminus: a fixed tail appended
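Note: 24-mer peptide tiles fused after GFP, lentivirally expressed, FACS-sorted into six equal bins by GFP/DsRed ratio, decoded by Illumina sequencing, PSI is the read-weighted mean bin number.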

| Sequence | protein stability index [1] | protein stability index [2] | protein stability index (treatment: DMSO, c terminus: native) | protein stability index (treatment: MLN4924 1 uM, 8 h, c terminus: native) |
| --- | --- | --- | --- | --- |
| DFWLMVWEQKVLVIVMTTRFEEGG [PTPN9] | 2.69 ± 0.77 | 2.58 ± 0.07 |  |  |
| SSSSGVLMVGPNFRVGKKIGCGNF [CSNK1G3] | 2.71 ± 0.38 | 2.71 ± 0.21 |  |  |
| SDLLNDQDLLDVIRIKLDPCHPTV [EDARADD] | 2.67 ± 0.23 | 2.78 ± 0.21 |  |  |
| LLCPETYVWVPIEQCLPSLENSKY [ATE1] | 2.19 ± 0.15 | 2.03 ± 0.18 |  |  |
| AASLAGCLGALCENTCLLRGFSGG [TSPAN10] | 2.22 ± 0.57 | 2.37 ± 0.58 |  |  |
| PPPPPLPDPTPPEPEEEILGSDDE [SRPK2] | 5.51 ± 0.23 | 5.63 ± 0.19 |  |  |
| KNGEWGTVCDDKWDLVSASVVCRE [LOXL2] | 3.85 ± 0.63 | 3.8 ± 0.73 |  |  |
| QIRDWRGGRLENQKPRGLEGGVLR [ZSWIM9] | 3.3 ± 0.54 | 3.57 ± 0.15 |  |  |
| SPPDQPAVPHPPPSTPIKLEEGDG [ADD1] | 5.56 ± 0.2 | 5.62 ± 0.18 |  |  |
| NKILVPLVLLRQMLLELTRRGQEP [BCL2L13] | 2.64 ± 1.6 | 2.92 ± 0.92 |  |  |
| NTLRSQLGDRLNVEVDTAPTVDLN [KRT34] | 4.84 ± 0.18 | 4.84 ± 0.15 |  |  |
| HKARTRPKARKQGVSPADMYRWKL [ADAMTSL2] | 3.32 ± 0.25 | 3.31 ± 0.42 |  |  |
| TVPADGYILELDDGNGGQFREVYV [TRIM9] | 2.15 ± 0.24 | 2.2 ± 0.6 |  |  |
| HVKEQLPCAGLNCQALDANLDANL [TLE6] | 4.42 ± 0.19 | 4.64 ± 0.24 |  |  |
| MSPESYLGSPQHSPSTRGSPNRSL [ATF4] | 4.64 ± 0.19 | 4.91 ± 0.3 |  |  |
| VNSNKVVMSGVKCSGTELSLAHCR [LOXL2] | 3.38 ± 1 | 2.95 ± 0.43 |  |  |
| RVKFKSQQHRQGRSHHLEMVIQLL [PTGFR] | 2.44 ± 0.19 | 2.21 ± 0.17 |  |  |
| TGVVEFVRKEDMTYAVRKLDNTKF [SRSF1] | 3.02 ± 0.3 | 3.26 ± 0.29 |  |  |
| VVNKYQINGLQAWLLTHLLWFANA [DHCR7] | 2.9 ± 0.28 | 2.75 ± 0.34 |  |  |
| EKAHECTDCGKAFLKKSQLTEHKR [ZNF649] | 3.54 ± 0.29 | 3.81 ± 0.38 |  |  |
| TPEEVIWEALNMMGLYDGMEHLIY [MAGEA10] | 2.49 ± 0.37 | 2.03 ± 0.055 |  |  |
| PTTGRVYESDSSNHCMLSPSSSGH [C18orf25] | 4.24 ± 0.24 | 4.52 ± 0.052 |  |  |
| TLAQAHFNNGEYAEAEALYSAYIR [TTC32] | 2.98 ± 0.27 | 3.39 ± 0.21 |  |  |

| Sequence | protein stability index [1] | protein stability index [2] | protein stability index (treatment: DMSO, c terminus: native) | protein stability index (treatment: MLN4924 1 uM, 8 h, c terminus: native) |
| --- | --- | --- | --- | --- |
| PSPPAAPSVADNLLASSDAALSAS [SERTAD1] | 5.25 ± 0.21 | 5.25 ± 0.094 |  |  |
| VIDDAKQYVYIAVMDYLPISSTST [PLD5] | 2.54 ± 0.95 | 2.76 ± 0.73 |  |  |
| MAHVDFRPPAYSPAQRSHTYTHGL | 2.8 ± 0.25 | 2.88 ± 0.32 |  |  |
| RAEIENLHRTFDPHFLRVPCWKIT [MOG] | 2.27 ± 0.22 | 2.42 ± 0.22 |  |  |
| TNLTVTMDQLQGLGSDYEQPLEVK [CDC25A] | 4.61 ± 0.16 | 4.69 ± 0.24 |  |  |
| LDTERPVQKRARSGPQPRLPPCLL [TRIB3] | 3.89 ± 0.41 | 4.1 ± 0.3 |  |  |
| DLSGIQTSDAAFLTQWKDSLVSLV [ZER1] | 2.37 ± 0.33 | 2.49 ± 0.26 |  |  |
| MAEEQGRERDSVPKPSVLFLHPDL [ALG2] | 4.36 ± 0.15 | 4.5 ± 0.32 |  |  |
| WCLVQICEKYLPGYYSEKLEAIQL [TBC1D10A] | 2.74 ± 0.48 | 3.57 ± 0.41 |  |  |
| AGTPGYLSPEVLRKDPYGKPVDMW [CAMK2D] | 3.34 ± 0.5 | 3.25 ± 0.42 |  |  |
| RYSGKILKNNETLVQHGVKPQEIV [IQUB] | 3.42 ± 0.21 | 3.71 ± 0.53 |  |  |
| PEEKIWEELSVLEVFEGREDSIFG [MAGEA6] | 4.23 ± 0.29 | 4.17 ± 0.39 |  |  |
| PDEAARARLLQEGGGGVAAVVVLD [DUSP5] | 4.3 ± 0.46 | 4.57 ± 0.13 |  |  |
| APLVQPSKNDNGKPDSVGLPPCAV [PCMTD1] | 5.09 ± 0.15 | 5.07 ± 0.22 |  |  |
| EHQPDNIKALFRKGKVLAQQGEYS [FKBP8] | 3.97 ± 0.36 | 3.87 ± 0.19 |  |  |
| IIELLEKDGMAFQEALDPGPFDQG [ELF3] | 3.58 ± 0.39 | 3.44 ± 0.32 |  |  |
| YSIQERRPQLPQVLQHVRLPLLSP [KLHL20] | 3.4 ± 0.18 | 3.42 ± 0.32 |  |  |
| CEERWLVIDRKVYNISEFTRRHPG [FADS1] | 2.1 ± 0.3 | 2.15 ± 0.33 |  |  |
| VFLGNKRSLSERTVDKCFGRKKYD [SPATS1] | 2.82 ± 0.24 | 3.21 ± 0.16 |  |  |
| SFGNCTYNLTILDCLQGIRKGLQH [CDC14A] | 2.38 ± 0.36 | 2.33 ± 0.44 |  |  |
| NEIIKKLQGDLKTLMGKLKLKNTV [SASS6] |  | 2.21 ± 0.35 |  |  |
| KLILGMPTYGRSFTLASSSDTRVG [CHIT1] | 2.42 ± 0.36 | 2.46 ± 0.22 |  |  |
| FQKTKNLLTGETEADPEMIKRAED [CLPTM1] | 5.01 ± 0.42 | 5.31 ± 0.17 |  |  |

| Sequence | protein stability index [1] | protein stability index [2] | protein stability index (treatment: DMSO, c terminus: native) | protein stability index (treatment: MLN4924 1 uM, 8 h, c terminus: native) |
| --- | --- | --- | --- | --- |
| GGVMYISGGITHDTFQKELMCFDP [KLHL13] | 2.23 ± 0.48 | 2.33 ± 0.54 |  |  |
| FVKILKDFPEEDDPTNWLRCYYYE [NCF4] | 2.25 ± 0.28 | 2.55 ± 0.6 |  |  |
| LACGSNRFNKLGLDHLSLGEEPVP [NEK8] | 3.12 ± 0.14 | 3.2 ± 0.14 |  |  |
| ERVTVAKLTLENFYSNLILQHEER [STK38L] | 2.85 ± 0.28 | 2.99 ± 0.31 |  |  |
| VYDQAVSIFYDLPQGSGFCLGQLN [SMAD6] | 2.03 ± 0.24 | 2.16 ± 0.32 |  |  |
| AQRSAHCSRPSGSSSSSGVLMVGP [CSNK1G1] | 3.65 ± 0.24 | 3.84 ± 0.14 |  |  |
| TLPLTLIVILENIAVAWIYGTKKF [SLC6A17] | 3.03 ± 0.34 | 3.35 ± 0.43 |  |  |
| CLSCRLFYFKLTDLYKKVKKNSSP [CRY1] | 2.42 ± 0.11 | 2.08 ± 0.44 |  |  |
| MYDLPKKEDALLYQSKGYNDDYYE [EMD] | 4.27 ± 0.15 | 4.25 ± 0.22 |  |  |
| IGSSSEKEIDDVIDEIISLESSYN [TFE3] | 4.37 ± 0.25 | 4.4 ± 0.22 |  |  |
| ASRTSTIFLNGNRERPLNVFCDME [TNXB] | 3.09 ± 0.42 | 3.07 ± 0.34 |  |  |
| AYDWVGRPIPTPVGSVHVDSGASA [CSNK1G1] | 3.94 ± 0.29 | 4.08 ± 0.16 |  |  |
| HSVLVDDDGIKVVKVTFNKQDSLV [TMEM106C] | 3.09 ± 0.27 | 3.18 ± 0.36 |  |  |
| TLHGNVCSFCKRAFPSGHLLDAHI [ZNF511] | 2.81 ± 0.27 | 2.95 ± 0.46 |  |  |
| TEPETAPTTEPETEPEDDRGPVVP [GNAS] | 5.61 ± 0.14 | 5.63 ± 0.27 |  |  |
| YLKSCRRMKKNGMEMTRPTPPHLT [NOL4L] | 2.89 ± 0.19 | 2.96 ± 0.25 |  |  |
| FLGSTEVEQPKGTEVVRDAVRKLK [GULP1] | 4.62 ± 0.24 | 4.62 ± 0.16 |  |  |
| QKLYVRLFQRKLSWIKMTKLEYEE [FAN1] | 2.63 ± 1.1 | 2.44 ± 0.6 |  |  |
| YTVRAPVGVAGLISPWNLPLYLLT [ALDH8A1] | 2.49 ± 0.47 | 2.14 ± 0.07 |  |  |
| QVVTVHLQTSLENGTRVQEEPELV [FKBP8] | 4.18 ± 0.15 | 4.37 ± 0.31 |  |  |
| REAFPSWSSRSPQERSRVLNQVAD [ALDH8A1] | 4.2 ± 0.33 | 4.233 ± 0.03 |  |  |
| THADMDGKRTPRGRRGWKKFYAVL [PSD2] | 2.65 ± 0.15 | 2.9 ± 0.11 |  |  |
| TNSTPLRAACFDGHLEIVKYLVEH [FEM1C] | 2.28 ± 0.49 | 2.39 ± 0.55 |  |  |

| Sequence | protein stability index [1] | protein stability index [2] | protein stability index (treatment: DMSO, c terminus: native) | protein stability index (treatment: MLN4924 1 uM, 8 h, c terminus: native) |
| --- | --- | --- | --- | --- |
| KHPQPAPAVTPDPWGVQGGQESEV [PKD2L1] | 5.24 ± 0.22 | 4.97 ± 0.21 |  |  |
| GADGVMRTMAPEKLLKSMPILQGQ [SNAP91] | 3.76 ± 0.32 | 3.77 ± 0.28 |  |  |
| LIFGLITCLTGVLGVGLGVEISRR [SPNS1] | 2.66 ± 0.23 | 3.13 ± 0.46 |  |  |
| MPTQEVQELPIPSKLLEFLSYRI [WSB1] |  |  | 2.82 ± 0.2 | 3.05 ± 0.12 |
| NLQPPASLQTGNHSNGPTDLSMKG [NOL4L] | 4.66 ± 0.25 | 4.61 ± 0.21 |  |  |
| QLQDFNIPQAGGWGPWGPWGDCSR [ADAMTS4] | 2.56 ± 0.59 | 3 ± 0.8 |  |  |
| EELNKEVASNSELVQSSRSEVTEL [KRT16] | 5.51 ± 0.16 | 5.55 ± 0.24 |  |  |
| WFPLHLSRILKKTVYNEMDKNRCE [EDNRA] | 2.6 ± 0.84 | 1.98 ± 0.4 |  |  |
| GLQSAQPTEGQGSLLTNWPSVPPT [MYBL2] | 4.02 ± 0.28 | 4.14 ± 0.092 |  |  |
| PPLSGALASITETIQVHRRYWRSL [HDAC6] | 2.99 ± 0.33 | 3.15 ± 0.4 |  |  |
| IPDAFWWAVVTMTTVGYGDMKPIT [KCNA4] | 3.8 ± 0.42 | 3.53 ± 0.16 |  |  |
| SSWPFSIQDVVQPLTLQVQRPLVS [AUP1] | 2.77 ± 0.32 | 3.03 ± 0.2 |  |  |
| TVQDYQDLIDRGWRRSGKYVYKPV [ATE1] | 2.89 ± 0.21 | 3.03 ± 0.51 |  |  |
| EACMTHLHYKWIPVEDSHTADISS [DUSP5] | 3.53 ± 0.23 | 3.63 ± 0.11 |  |  |
| QYSVEGGKETLTPSELRDLVTQQL [S100A14] | 4.59 ± 0.23 | 4.55 ± 0.13 |  |  |
| ATGFHFNAMTCEGCKGFFRRSMKR [VDR] | 2.63 ± 0.18 | 2.9 ± 0.21 |  |  |
| HAPGVPKILVGNRLHLAFKRQVPT [RAB40B] | 2.49 ± 0.5 | 2.6 ± 0.35 |  |  |
| LKSLDKEISEAFTSTGFDRHTSPV [BCL2L13] | 3.98 ± 0.36 | 4.12 ± 0.44 |  |  |
| DLEVDMNKTEVTPRLWTTCRDGEV [ACSBG2] | 3.96 ± 0.15 | 3.95 ± 0.064 |  |  |
| YVFFVLAVMEHAESKMYATSPYSD [PTPRD] | 3.02 ± 0.82 | 3.28 ± 0.78 |  |  |
